From IntAct's records for PubMed 31515488

B1: G1/S-specific cyclin-D3 (Homo sapiens), P30281 (parent)
chain: MELLCCEGTRHAPRAGPDPRLLGDQRVLQSLLRLEERYVPRASYFQCVQREIKPHMRKMLAYWMLEVCEEQRCEEEVFPLAMNYLDRYLSCVPTRKAQLQLLGAVCMLLASKLRETTPLTIEKLCIYTDHAVSPRQLRDWEVLVLGKLKWDLAAVIAHDFLAFILHRLSLPRDRQALVKKHAQTFLALCATDYTFAMYPPSMIATGSIGAAVQGLGACSMSGDELTELLAGITGTEVDCLRACQEQIEAALRESLREASQTSSSPAPKAPRGSSSQGPSQTSTPTDVTAIHL
B2: SKA complex subunit 1 (Homo sapiens), Q96BD8 (parent)
chain: MASSDLEQLCSHVNEKIGNIKKTLSLRNCGQEPTLKTVLNKIGDEIIVINELLNKLELEIQYQEQTNNSLKELCESLEEDYKDIEHLKENVPSHLPQVTVTQSCVKGSDLDPEEPIKVEEPEPVKKPPKEQRSIKEMPFITCDEFNGVPSYMKSRLTYNQINDVIKEINKAVISKYKILHQPKKSMNSVTRNLYHRFIDEETKDTKGRYFIVEADIKEFTTLKADKKFHVLLNILRHCRRLSEVRGGGLTRYVIT
partner: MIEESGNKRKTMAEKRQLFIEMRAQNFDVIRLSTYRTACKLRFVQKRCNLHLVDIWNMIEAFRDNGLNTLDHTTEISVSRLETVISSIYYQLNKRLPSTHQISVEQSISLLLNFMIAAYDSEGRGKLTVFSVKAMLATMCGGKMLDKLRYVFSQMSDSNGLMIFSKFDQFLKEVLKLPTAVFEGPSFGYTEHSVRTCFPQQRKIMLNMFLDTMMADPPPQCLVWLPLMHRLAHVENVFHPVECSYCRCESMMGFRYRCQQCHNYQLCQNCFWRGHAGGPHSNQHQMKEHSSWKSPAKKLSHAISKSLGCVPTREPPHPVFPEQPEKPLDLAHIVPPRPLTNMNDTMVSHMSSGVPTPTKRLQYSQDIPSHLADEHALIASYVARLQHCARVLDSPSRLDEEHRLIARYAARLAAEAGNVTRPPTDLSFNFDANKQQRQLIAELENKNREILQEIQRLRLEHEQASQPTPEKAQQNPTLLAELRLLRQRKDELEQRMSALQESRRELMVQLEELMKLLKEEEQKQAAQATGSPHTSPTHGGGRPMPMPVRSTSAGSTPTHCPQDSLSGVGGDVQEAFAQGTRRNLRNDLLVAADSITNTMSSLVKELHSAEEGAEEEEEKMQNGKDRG
B3: Progranulin (Homo sapiens), P28799 (parent)
chain: MWTLVSWVALTAGLVAGTRCPDGQFCPVACCLDPGGASYSCCRPLLDKWPTTLSRHLGGPCQVDAHCSAGHSCIFTVSGTSSCCPFPEAVACGDGHHCCPRGFHCSADGRSCFQRSGNNSVGAIQCPDSQFECPDFSTCCVMVDGSWGCCPMPQASCCEDRVHCCPHGAFCDLVHTRCITPTGTHPLAKKLPAQRTNRAVALSSSVMCPDARSRCPDGSTCCELPSGKYGCCPMPNATCCSDHLHCCPQDTVCDLIQSKCLSKENATTDLLTKLPAHTVGDVKCDMEVSCPDGYTCCRLQSGAWGCCPFTQAVCCEDHIHCCPAGFTCDTQKGTCEQGPHQVPWMEKAPAHLSLPDPQALKRDVPCDNVSSCPSSDTCCQLTSGEWGCCPIPEAVCCSDHQHCCPQGYTCVAEGQCQRGSEIVAGLEKMPARRASLSHPRDIGCDQHTSCPVGQTCCPSLGGSWACCQLPHAVCCEDRQHCCPAGYTCNVKARSCEKEVVSAQPATFLARSPHVGVKDVECGEGHFCHDNQTCCRDNRQGWACCPYRQGVCCADRRHCCPAGFRCAARGTKCLRREAPRWDAPLRDPALRQLL
B4: E3 ubiquitin-protein ligase SH3RF2 (Homo sapiens), Q8TEC5 (parent)
chain: MDDLTLLDLLECPVCFEKLDVTAKVLPCQHTFCKPCLQRVFKAHKELRCPECRTPVFSNIEALPANLLLVRLLDGVRSGQSSGRGGSFRRPGTMTLQDGRKSRTNPRRLQASPFRLVPNVRIHMDGVPRAKALCNYRGQNPGDLRFNKGDIILLRRQLDENWYQGEINGISGNFPASSVEVIKQLPQPPPLCRALYNFDLRGKDKSENQDCLTFLKDDIITVISRVDENWAEGKLGDKVGIFPILFVEPNLTARHLLEKNKGRQSSRTKNLSLVSSSSRGNTSTLRRGPGSRRKVPGQFSITTALNTLNRMVHSPSGRHMVEISTPVLISSSNPSVITQPMEKADVPSSCVGQVSTYHPAPVSPGHSTAVVSLPGSQQHLSANMFVALHSYSAHGPDELDLQKGEGVRVLGKCQDGWLRGVSLVTGRVGIFPNNYVIPIFRKTSSFPDSRSPGLYTTWTLSTSSVSSQGSISEGDPRQSRPFKSVFVPTAIVNPVRSTAGPGTLGQGSLRKGRSSMRKNGSLQRPLQSGIPTLVVGSLRRSPTMVLRPQQFQFYQPQGIPSSPSAVVVEMGSKPALTGEPALTCISRGSEAWIHSAASSLIMEDKEIPIKSEPLPKPPASAPPSILVKPENSRNGIEKQVKTVRFQNYSPPPTKHYTSHPTSGKPEQPATLKASQPEAASLGPEMTVLFAHRSGCHSGQQTDLRRKSALGKATTLVSTASGTQTVFPSK

Variants of: B1
Conditions: with cdk6_human CDK6, Q00534
Chain of cdk6_human CDK6, Q00534 (Q00534 whole entry): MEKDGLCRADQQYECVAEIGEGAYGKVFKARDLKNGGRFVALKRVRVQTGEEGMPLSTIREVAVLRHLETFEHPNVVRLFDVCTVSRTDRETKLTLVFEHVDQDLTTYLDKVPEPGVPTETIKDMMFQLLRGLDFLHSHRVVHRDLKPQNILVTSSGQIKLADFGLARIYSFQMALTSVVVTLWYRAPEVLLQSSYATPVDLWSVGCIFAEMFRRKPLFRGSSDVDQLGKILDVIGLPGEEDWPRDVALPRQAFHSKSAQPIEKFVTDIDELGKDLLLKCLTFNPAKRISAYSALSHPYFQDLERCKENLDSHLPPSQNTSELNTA
With MELLCCEGTRHAPRAGPDPRLLGDQRVLQSLLRLEERYVPRASYFQCVQREIKPHMRKMLAYWMLEVCEEQRCEEEVFPLAMNYLDRYLSCVPTRKAQLQLLGAVCMLLASKLRETTPLTIEKLCIYTDHAVSPRQLRDWEVLVLGKLKWDLAAVIAHDFLAFILHRLSLPRDRQALVKKHAQTFLALCATDYTFAMYPPSMIATGSIGAAVQGLGACSMSGDELTELLAGITGTEVDCLRACQEQIEAALRDSLREASQTSSSPAPKAPRGSSSQGPSQTSTPTDVTAIHL [E253D] the “effect of a mutation on the interaction” value was “with no effect”.

Variants of: B1
Conditions: with cdn1a_human CDKN1A
In the case of MELLCCEGTRHAPRAGPDPRLLGDQRVLQSLLRLEERYVPRASYFQCVQREIKPHMRKMLAYWMLEVCEEQRCEEEVFPLAMNYLDRYLSCVPTRKAQLQLLGAVCMLLASKLRETTPLTIEKLCIYTDHAVSPRQLRDWEVLVLGKLKWDLAAVIAHDFLAFILHRLSLPRDRQALVKKHAQTFLALCATDYTFAMYPPSMIATGSIGAAVQGLGACSMSGDELTELLAGITGTEVDCLRACQEQIEAALRDSLREASQTSSSPAPKAPRGSSSQGPSQTSTPTDVTAIHL [E253D], the “effect of a mutation on the interaction” value is reported as “with no effect”.

Variants of: B2
Conditions: with dtnb_human DTNB
With MASSDLEQLCSHVNEKIGNIKKTLSLRNCGQEPTLKTVLNKIGDEIIVINELLNKLELEIQYQEQTNNSLKELCESLEEDYKDIEHLKENIPSHLPQVTVTQSCVKGSDLDPEEPIKVEEPEPVKKPPKEQRSIKEMPFITCDEFNGVPSYMKSRLTYNQINDVIKEINKAVISKYKILHQPKKSMNSVTRNLYHRFIDEETKDTKGRYFIVEADIKEFTTLKADKKFHVLLNILRHCRRLSEVRGGGLTRYVIT [V91I] the “effect of a mutation on the interaction” value was “with no effect”.

Variants of: B3
Conditions: with hxa1_human HOXA1, P49639
Chain of hxa1_human HOXA1, P49639 (P49639 whole entry): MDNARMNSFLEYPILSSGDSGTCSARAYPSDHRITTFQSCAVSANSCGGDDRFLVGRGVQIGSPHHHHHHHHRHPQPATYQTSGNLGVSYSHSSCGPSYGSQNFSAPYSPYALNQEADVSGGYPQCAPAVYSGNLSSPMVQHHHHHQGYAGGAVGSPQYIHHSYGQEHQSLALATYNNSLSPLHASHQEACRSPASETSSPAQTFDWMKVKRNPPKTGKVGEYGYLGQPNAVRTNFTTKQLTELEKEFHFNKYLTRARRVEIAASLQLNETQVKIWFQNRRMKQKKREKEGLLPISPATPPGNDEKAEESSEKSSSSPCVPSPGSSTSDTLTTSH
With MWTLVSWVALTAGLVAGTRCPDGQFCPVACCLDPGGASYSCCRPLLDKWPTTLSRHLGGPCQVDAHCSAGHSCIFTVSGTSSCCPFPEAVACGDGHHCCPRGFHCSADGRSCFQRSGNNSVGAIQCPDSQFECPDFSTCCVMVDGSWGCCPMPQASCCEDRVHCCPHGAFCDLVHTRCITPTGTHPLAKKLPAQRTNRAVALSSSVMCPDARSRCPDGSTCCELPSGKYGCCPMPNATCCSDHLHCCPQDTVCDLIQSKCLSKENATTDLLTKLPAHTVGDVKCDMEVSCPDGYTCCRLQSGAWGCCPFTQAVCCEDHIHCCPAGFTCDTQKGTCEQGPHQVPWMEKAPAHLSLPDPQALKRDVPCDNVSSCPSSDTCCQLTSGEWGCCPIPEAVCCSDHQHCCPQGYTCVAEGQCQRGSEIVAGLEKMPARRASLSHPRDIGCDQHTSCPVGQTCCPSLGGSWACCQLPHAVCCEDRQHCCPAGYTCNVKARSCEKEVVSAQPATFLARSPHVGVKDVECGEGHFCHDNQTCCRENRQGWACCPYRQGVCCADRRHCCPAGFRCAARGTKCLRREAPRWDAPLRDPALRQLL [D536E] the “effect of a mutation on the interaction” value was “with no effect”.

Variants of: B3
Conditions: with glrx3_human GLRX3, O76003
Chain of glrx3_human GLRX3, O76003 (O76003 whole entry): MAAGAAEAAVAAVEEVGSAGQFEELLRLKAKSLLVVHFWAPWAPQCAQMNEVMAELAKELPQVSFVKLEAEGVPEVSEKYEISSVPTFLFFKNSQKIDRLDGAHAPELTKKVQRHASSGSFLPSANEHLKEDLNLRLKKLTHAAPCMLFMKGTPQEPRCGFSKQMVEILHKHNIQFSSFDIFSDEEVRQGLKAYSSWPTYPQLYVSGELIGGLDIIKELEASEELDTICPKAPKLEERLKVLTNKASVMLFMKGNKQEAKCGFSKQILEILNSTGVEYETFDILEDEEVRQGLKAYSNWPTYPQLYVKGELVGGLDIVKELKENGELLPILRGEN
MWTLVSWVALTAGLVAGTRCPDGQFCPVACCLDPGGASYSCCRPLLDKWPTTLSRHLGGPCQVDAHCSAGHSCIFTVSGTSSCCPFPEAVACGDGHHCCPRGFHCSADGRSCFQRSGNNSVGAIQCPDSQFECPDFSTCCVMVDGSWGCCPMPQASCCEDRVHCCPHGAFCDLVHTRCITPTGTHPLAKKLPAQRTNRAVALSSSVMCPDARSRCPDGSTCCELPSGKYGCCPMPNATCCSDHLHCCPQDTVCDLIQSKCLSKENATTDLLTKLPAHTVGDVKCDMEVSCPDGYTCCRLQSGAWGCCPFTQAVCCEDHIHCCPAGFTCDTQKGTCEQGPHQVPWMEKAPAHLSLPDPQALKRDVPCDNVSSCPSSDTCCQLTSGEWGCCPIPEAVCCSDHQHCCPQGYTCVAEGQCQRGSEIVAGLEKMPARRASLSHPRDIGCDQHTSCPVGQTCCPSLGGSWACCQLPHAVCCEDRQHCCPAGYTCNVKARSCEKEVVSAQPATFLARSPHVGVKDVECGEGHFCHDNQTCCRENRQGWACCPYRQGVCCADRRHCCPAGFRCAARGTKCLRREAPRWDAPLRDPALRQLL [D536E] was tested, and the “effect of a mutation on the interaction” value was “with no effect”.

Variants of: B4
Conditions: with rbpms_human RBPMS
With V687I the “effect of a mutation on the interaction” value was “with no effect”.

Variants of: B4
Conditions: with amol2_human AMOTL2, Q9Y2J4
Chain of amol2_human AMOTL2, Q9Y2J4 (Q9Y2J4 whole entry): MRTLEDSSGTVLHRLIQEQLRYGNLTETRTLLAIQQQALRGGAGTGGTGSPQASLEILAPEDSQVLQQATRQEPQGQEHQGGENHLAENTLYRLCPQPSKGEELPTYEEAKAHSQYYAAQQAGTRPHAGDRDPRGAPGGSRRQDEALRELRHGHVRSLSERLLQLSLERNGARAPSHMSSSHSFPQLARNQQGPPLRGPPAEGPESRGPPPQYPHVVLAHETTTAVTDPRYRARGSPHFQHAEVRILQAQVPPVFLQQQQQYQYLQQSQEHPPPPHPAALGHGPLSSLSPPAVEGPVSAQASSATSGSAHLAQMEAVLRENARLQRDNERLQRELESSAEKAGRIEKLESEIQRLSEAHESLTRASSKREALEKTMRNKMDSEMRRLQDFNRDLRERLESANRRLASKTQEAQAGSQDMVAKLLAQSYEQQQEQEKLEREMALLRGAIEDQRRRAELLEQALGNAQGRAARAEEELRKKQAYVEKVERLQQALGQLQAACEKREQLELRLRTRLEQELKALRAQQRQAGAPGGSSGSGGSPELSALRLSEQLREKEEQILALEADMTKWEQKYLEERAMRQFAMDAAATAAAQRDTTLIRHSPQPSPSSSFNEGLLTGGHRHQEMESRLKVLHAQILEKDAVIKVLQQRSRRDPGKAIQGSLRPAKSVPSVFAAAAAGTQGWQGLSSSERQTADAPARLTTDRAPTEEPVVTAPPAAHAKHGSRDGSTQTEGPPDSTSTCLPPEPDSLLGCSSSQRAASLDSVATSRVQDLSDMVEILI
In the case of V687I, the “effect of a mutation on the interaction” value is reported as “with no effect”.

Variants of: B4
Conditions: with mtus2_human MTUS2, Q5JR59
Chain of mtus2_human MTUS2, Q5JR59 (Q5JR59 whole entry): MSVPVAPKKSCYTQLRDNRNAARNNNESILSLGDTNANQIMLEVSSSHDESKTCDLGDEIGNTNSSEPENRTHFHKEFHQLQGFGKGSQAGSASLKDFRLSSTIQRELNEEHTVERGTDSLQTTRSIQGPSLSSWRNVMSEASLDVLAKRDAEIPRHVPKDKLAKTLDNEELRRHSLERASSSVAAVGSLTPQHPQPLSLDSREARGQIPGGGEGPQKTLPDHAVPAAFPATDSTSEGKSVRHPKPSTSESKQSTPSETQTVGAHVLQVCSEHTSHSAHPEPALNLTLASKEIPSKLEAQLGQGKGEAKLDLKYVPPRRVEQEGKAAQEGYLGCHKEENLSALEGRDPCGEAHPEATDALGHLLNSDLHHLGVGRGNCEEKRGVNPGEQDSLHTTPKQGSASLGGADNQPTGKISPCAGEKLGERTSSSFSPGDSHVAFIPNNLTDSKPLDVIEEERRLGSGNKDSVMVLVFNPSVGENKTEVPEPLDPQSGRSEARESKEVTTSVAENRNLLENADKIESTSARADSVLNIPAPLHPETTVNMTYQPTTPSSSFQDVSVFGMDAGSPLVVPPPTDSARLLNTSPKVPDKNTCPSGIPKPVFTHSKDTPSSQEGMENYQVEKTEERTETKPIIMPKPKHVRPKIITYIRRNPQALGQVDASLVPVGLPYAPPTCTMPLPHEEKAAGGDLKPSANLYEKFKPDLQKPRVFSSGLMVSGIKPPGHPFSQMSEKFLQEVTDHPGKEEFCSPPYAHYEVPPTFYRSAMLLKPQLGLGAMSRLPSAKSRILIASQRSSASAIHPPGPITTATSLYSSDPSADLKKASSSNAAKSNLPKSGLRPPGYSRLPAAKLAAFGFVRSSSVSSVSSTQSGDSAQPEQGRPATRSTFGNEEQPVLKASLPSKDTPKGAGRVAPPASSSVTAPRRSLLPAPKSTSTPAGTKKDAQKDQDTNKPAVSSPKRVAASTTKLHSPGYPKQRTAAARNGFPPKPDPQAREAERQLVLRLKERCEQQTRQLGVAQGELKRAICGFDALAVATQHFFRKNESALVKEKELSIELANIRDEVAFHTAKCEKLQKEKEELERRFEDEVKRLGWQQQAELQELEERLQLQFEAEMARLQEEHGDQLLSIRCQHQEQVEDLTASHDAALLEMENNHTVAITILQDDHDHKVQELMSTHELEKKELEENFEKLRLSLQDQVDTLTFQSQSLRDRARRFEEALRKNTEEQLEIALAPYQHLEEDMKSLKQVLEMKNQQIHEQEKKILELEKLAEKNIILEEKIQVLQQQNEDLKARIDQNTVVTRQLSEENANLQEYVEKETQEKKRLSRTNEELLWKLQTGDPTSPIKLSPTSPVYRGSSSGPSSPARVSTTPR
In the case of V687I, the “effect of a mutation on the interaction” value is reported as “with no effect”.
